In patent publication US8669345:

Experiments:
[1] = target: sNgR310 (recombinant fragment of rat NgR1, aa 27-310) (rat) (UniProt Q99M75); experiment: SPA, unlabelled Nogo66 (x axis Nogo66 Conc [M]) displacing 125I-Nogo66 from sNogoR310; Bound SPA cpm falls from about 2900 to about 2050; the unit stands on the axis, not in the table
sNogoR310-Fc (rat) = sNogoR310-Fc (rat) (UniProt Q99M75); experiment: SPA, unlabelled Nogo1-40 (x axis Nogo1-40 [M]) displacing 125I-Nogo1-40-C from sNogoR310-Fc; the unit stands on the axis, not in the table
Nogo1-40 = experiment: SPA competition: Ig-sNogoR1-310 added in rising amount [ug] against binding of 125I-Nogo1-40-C to sNogoR310
Nogo1-40, sequence (Q9NQC3 1055-1094): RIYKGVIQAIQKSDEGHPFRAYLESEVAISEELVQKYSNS

sNogoR310-Fc (rat), sequence (Q99M75 other isoform, or with tags, fused parts or gaps): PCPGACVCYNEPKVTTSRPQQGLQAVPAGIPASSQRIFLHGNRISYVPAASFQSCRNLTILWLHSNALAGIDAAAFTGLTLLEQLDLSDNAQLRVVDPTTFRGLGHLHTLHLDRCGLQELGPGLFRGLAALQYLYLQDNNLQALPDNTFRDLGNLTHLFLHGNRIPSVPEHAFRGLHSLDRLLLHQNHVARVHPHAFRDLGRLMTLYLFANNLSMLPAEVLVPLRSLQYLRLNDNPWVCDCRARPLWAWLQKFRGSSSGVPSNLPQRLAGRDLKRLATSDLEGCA
sNgR310 (recombinant fragment of rat NgR1, aa 27-310) (rat), sequence (Q99M75 other isoform, or with tags, fused parts or gaps): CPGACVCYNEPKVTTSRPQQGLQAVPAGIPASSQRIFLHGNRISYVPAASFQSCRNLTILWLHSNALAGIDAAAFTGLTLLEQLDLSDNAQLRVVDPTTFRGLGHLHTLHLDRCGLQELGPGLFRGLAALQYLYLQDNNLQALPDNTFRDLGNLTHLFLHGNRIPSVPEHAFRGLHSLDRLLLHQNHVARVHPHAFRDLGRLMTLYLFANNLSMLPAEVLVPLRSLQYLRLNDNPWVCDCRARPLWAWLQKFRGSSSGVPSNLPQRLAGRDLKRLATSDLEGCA
Nogo1-40 (peptide), sequence (Q9NQC3 1055-1094): as the sequence (Q9NQC3 1055-1094) above

Which EC50 [1] does the source give for Nogo66 (ligand) here?
The EC50 was 0.303 µM.

For Nogo1-40 (peptide), which EC50 (sNogoR310-Fc (rat)) is on record?
Its EC50 is 0.12 µM.

“sNogoR310-Fc (from UniProt Q99M75 26-310) (Fc fusion)” was tested. Which IC50 (Nogo1-40) did it give?
Its IC50 is 0.1 µM.
